Molecular target: T1, GST-HrcA fusion protein (C. jejuni NCTC11168 HrcA repressor fused to glutathione S-transferase) (C. jejuni NCTC 11168, UniProt Q9PPG2 1-264)
T1 construct: HrcA heat-shock transcriptional repressor of Campylobacter jejuni NCTC 11168; also called heat-shock repressor HrcA
T1 sequence (looked up): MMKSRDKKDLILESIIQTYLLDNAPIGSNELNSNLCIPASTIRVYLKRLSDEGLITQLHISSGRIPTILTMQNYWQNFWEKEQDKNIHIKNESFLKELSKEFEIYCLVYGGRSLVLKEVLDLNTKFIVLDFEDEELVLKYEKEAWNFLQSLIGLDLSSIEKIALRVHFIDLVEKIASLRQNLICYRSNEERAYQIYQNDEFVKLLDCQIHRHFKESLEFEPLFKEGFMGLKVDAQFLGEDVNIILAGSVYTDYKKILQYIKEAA
Test: pull-down; GST-HrcA on glutathione-agarose as bait, incubated 16 h at 4 °C with pre-cleared C. jejuni NCTC11168 cytoplasmic extract in Res buffer (10 mM Tris-HCl pH 7.5, 100 mM NaCl, 20 mM KCl, 1 mM EDTA, 0.01% NP-40); GroEL detected by anti-GroEL immunoblot; GST alone as control bait
Details: one partner purified

B1: GroEL chaperonin of C. jejuni (natural protein, UniProt O69289 1-545, looked up)
chain: MAKEIIFSDEARNKLYEGVKKLNDAVKVTMGPRGRNVLIQKSFGAPSITKDGVSVAKEVELKDSLENMGASLVREVASKTADQAGDGTTTATVLAHAIFKEGLRNITAGANPIEVKRGMDKACEAIVAELKKLSREVKDKKEIAQVATISANSDEKIGNLIADAMEKVGKDGVITVEEAKSINDELNVVEGMQFDRGYLSPYFITNAEKMTVELSSPYILLFDKKITNLKDLLPVLEQIQKTGKPLLIIAEDIEGEALATLVVNKLRGVLNISAVKAPGFGDRRKAMLEDIAILTGGEVISEELGRTLESATIQDLGQASSVIIDKDNTTIVNGAGEKANIDARVNQIKAQIAETTSDYDREKLQERLAKLSGGVAVIKVGAATETEMKEKKDRVDDALSATKAAVEEGIVIGGGAALIKAKAKIKLDLQGDEAIGAAIVERALRAPLRQIAENAGFDAGVVVNSVENAKDENTGFDAAKGEYVNMLESGIIDPVKVERVALLNAVSVASMLLTTEATISEIKEDKPTMPDMSGMGGMGGMGGMM
notes: GroEL (60 kDa chaperonin) of Campylobacter jejuni NCTC 11168, endogenous protein detected by anti-GroEL immunoblot; Only GroEL was detected in the pull-down; also called GroE chaperonin; source: endogenous, cytoplasmic protein extract of C. jejuni NCTC11168 wild type
  fold intensity of the GroEL band against the GST control pull-down: 6.2 fold

— PMC8533110, “Feeling the Heat: The Campylobacter jejuni HrcA Transcriptional Repressor Is an Intrinsic Protein Thermosensor” (Biomolecules, 2021)
